Paper PMC11840766 (ACS Omega, 2025)

Target: T1, extracellular protein domain (position 43-300) of human CD38 (Homo sapiens, UniProt P28907)
T1 construct: human CD38, extracellular domain, position 43-300; also called CD38 (extracellular domain); source: kindly provided by Dr. Hanna Tegel
Assay: SPR; ProteOn XPR36; scFv_(CD38) sortase-coupled to a G5-silk coating on bare gold outside the instrument; CD38 extracellular domain (printed: 200 mM) in PBS pH 7.4/0.01% Tween 20 flown at 25 uL/min, 30 min
Details: both partners purified

B1: scFv_(CD38)-silk (scFv_(CD38) sortase-coupled to the N-terminus of G5-FN-4RepCT), as silk coating (scFv, V domains shown)
VH: QVQLVQSGAEVKKPGSSVKVSCKPSGGTFRSYAISWVRQAPGQGLEWMGRIIVFLGKVNYAQRFQGRVTLTADKSTTTAYMELSSLRSEDTAVYYCTGEPGARDPDAFDIWGQGTMVTVSS
VL: DIQMTQSPSSLSASVGDRVTITCRASQGIRSWLAWYQQKPEKAPKSLIYAASSLQSGVPSRFSGSGSGTDFTLTISSLQPEDFATYYCQQYNNYPLTFGGGTKVEIK
notes: VH of the anti-CD38 scFv; 3xG4S linker, written out from the printed name; VL of the anti-CD38 scFv; what is left of the sortase recognition tag LPETGG after sortase A cleaves between threonine and glycine; the five N-terminal glycines of G5-silk, told in words; 4RepCT, a miniature form of the major ampullate spidroin 1 (MaSp 1) from Euprosthenops australis; The GG-His6 end is lost on coupling; …
- binding result: binds
